For the assay, the target named is mesothelin-Fc fusion protein, immobilized on beads (UniProt Q13421). The assay is described as follows: cell-based or functional assay.
Chain of UniProt Q13421 (Q13421 other isoform, or with tags, fused parts or gaps limits assumed): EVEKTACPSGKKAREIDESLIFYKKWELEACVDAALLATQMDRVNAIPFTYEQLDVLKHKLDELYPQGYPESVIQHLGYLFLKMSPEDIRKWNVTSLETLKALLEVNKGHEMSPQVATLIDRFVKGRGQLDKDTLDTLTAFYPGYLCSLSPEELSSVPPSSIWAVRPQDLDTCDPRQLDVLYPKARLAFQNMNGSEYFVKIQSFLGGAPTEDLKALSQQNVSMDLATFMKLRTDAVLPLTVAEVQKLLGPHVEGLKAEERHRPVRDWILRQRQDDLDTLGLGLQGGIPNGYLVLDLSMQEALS

The substance “mesothelin-specific BBz CAR (SS1 scFv, 4-1BB and CD3z signaling domains) (receptor)” returned a Total Population Doublings (donor 1) (population doublings) of 8.8, a Total Population Doublings (donor 2) (population doublings) of 8.4 and a Total Population Doublings (donor 3) (population doublings) of 8.4.
In the case of “mesothelin-specific 28z CAR (SS1 scFv, CD28 and CD3z signaling domains) (receptor)”, the Total Population Doublings (donor 1) (population doublings) turned out to be 5.8, the Total Population Doublings (donor 2) (population doublings) is 6.9 and the Total Population Doublings (donor 3) (population doublings) turned out to be 6.

The record behind these values is patent US20170137783A1.
